The test has as its target cdk5_rat Cdk5 (UniProt Q03114).

Data on 2 substances can be found in IntAct's records for PubMed 17341134.

Consider “BDNF/NT-3 growth factors receptor (Rattus norvegicus (Rat)), Q63604 S478A”, for which the “effect of a mutation on the interaction” value is recorded as “decreasing interaction”.
Regarding “BDNF/NT-3 growth factors receptor (Rattus norvegicus (Rat)), Q63604 T489A”, the “effect of a mutation on the interaction” value is reported as “decreasing interaction”.
